Where no end group is shown, it is not given here. The star is where a group is joined. Bz‑MA = benzoylmercaptoacetyl chelator, O=C(SCC(=O)*)c1ccccc1; Picolinoyl = O=C(c1ccccn1)*; Acm = CC(=O)NC*

The conditions of data set [1]: in vivo; cited from earlier work.
Data set [2] concerns rat inflammation model (E. coli, left hindleg). Put plainly: Biodistribution and imaging of Tc-99m labelled conjugates in a rat inflammation model. To be noted: for Blood / G.I. tract / Urine: Tc-99m labelled conjugate i.v.; for inflam muscle: inflamed muscle (left leg); for Uninfl muscle: non-inflamed muscle (right leg); for Inflam:Uninfl: ratio inflamed to uninflamed muscle.

On to “labelled tuftsin: naturally occurring tetrapeptide tuftsin TKPR (Seq. ID no:1) labelled with a radionuclide metal (also: labelled with a radionuclide metal)”, for which the “accumulation in non-target tissue (gastrointestinal tract), in words” value in data set [1] was “accumulated in the gastrointestinal tract”.

In data set [2] (Time 35 min), “PicSerCys(Acm) Gly TKPR: chelator PicSerCys(Acm), linking group Gly, native tuftsin peptide TKPR (Seq ID no: 1); comparison conjugate ({Picolinoyl-Ser-Cys(Acm)}-GTKPR)” returned a Blood of 0.268 % dose/g, a G.I. tract of 22.8, a Urine of 22.8 and an inflam muscle of 0.120 % dose/g. In addition, in data set [2] (Time 35 min), the Uninfl muscle came out at 0.040 % dose/g and the “Inflam:Uninfl” value was 3.0.

In data set [2] (Time 30 min), “Pic-Ser-Cys(Acm)-Gly-TKPPR (Picolinoyl-SC(Acm)GTKPPR) [PicSerCys(Acm) Gly TKPPR]” had a Blood of 0.392 % dose/g, a G.I. tract of 5.08, a Urine of 44.71 and an inflam muscle of 0.154 % dose/g. Further, in data set [2] (Time 30 min), the Uninfl muscle is on record as 0.052 % dose/g and the “Inflam:Uninfl” value is recorded as 3.6. In data set [2] (Time 180 min), this substance came in with a Blood of 0.048 % dose/g, a G.I. tract of 3.71, a Urine of 80.62 and an inflam muscle of 0.026 % dose/g. Besides, in data set [2] (Time 180 min), the Uninfl muscle stood at 0.006 % dose/g and the “Inflam:Uninfl” value amounted to 4.7.

“PicSerCys(Acm) Gly KPPR: chelator PicSerCys(Acm), linking group Gly, peptide KPPR (Seq ID no: 9); comparison conjugate ({Picolinoyl-Ser-Cys(Acm)}-GKPPR)”: in data set [2] (Time 45 min), the Blood worked out at 0.220 % dose/g, the Urine amounted to 43.5, the inflam muscle was 0.125 % dose/g and the Uninfl muscle is 0.059 % dose/g. Further, the “Inflam:Uninfl” value in data set [2] (Time 45 min) was determined as 2.1.

In data set [2] (Time 35 min), “Pic-Ser-Cys(Acm)-Gly-Asp-Gly-TKPPR (Picolinoyl-SC(Acm)GDGTKPPR) [PicSerCys(Acm) GDG TKPPR]” returned a Blood of 0.228 % dose/g, a Urine of 63.1, an inflam muscle of 0.166 % dose/g and a Uninfl muscle of 0.034 % dose/g. The “Inflam:Uninfl” value in data set [2] (Time 35 min) was determined as 4.9.

In data set [2] (Time 35 min), “PicSerCys(Acm) Gly RTKPR: chelator PicSerCys(Acm), linking group Gly, peptide RTKPR (Seq ID no: 11); comparison conjugate ({Picolinoyl-Ser-Cys(Acm)}-GRTKPR)” displayed a Blood of 0.169 % dose/g, a G.I. tract of 15.0, a Urine of 45.4 and an inflam muscle of 0.099 % dose/g. In data set [2] (Time 35 min), the Uninfl muscle amounted to 0.033 % dose/g and the “Inflam:Uninfl” value was determined as 3.0.

On to “PicSerCys(Acm) Gly TKPRTKPR: chelator PicSerCys(Acm), linking group Gly, peptide TKPRTKPR (tuftsin dimer, Seq ID no: 10); comparison conjugate ({Picolinoyl-Ser-Cys(Acm)}-GTKPRTKPR)”, for which, in data set [2], the “accumulation in blood, in words” value is given as “low accumulation”; the “accumulation in the GI tract, in words” value was “low accumulation”; the “urine levels / clearance into the urine, in words” value is “particularly low urine levels”. In data set [2] (Time 35 min), this substance had a Blood of 0.136 % dose/g, a G.I. tract of 4.2, a Urine of 16.1 and an inflam muscle of 0.071 % dose/g. For the same substance, in data set [2] (Time 35 min), the Uninfl muscle came to 0.022 % dose/g and the “Inflam:Uninfl” value is on record as 3.2.

With “Bz-MA-Ser-Cys-Ser-Gly-Asp-Gly-TKPPR ({Bz‑MA}-SCSGDGTKPPR) [BzMASerCys SGDG- TKPPR]”, in data set [2] (Time 35 min), the Blood is 0.483 % dose/g, the Urine was determined as 47.8, the inflam muscle stood at 0.226 % dose/g and the Uninfl muscle was 0.057 % dose/g. The “Inflam:Uninfl” value in data set [2] (Time 35 min) is listed as 4.0.

The record behind these values is patent publication US5866544A, “Peptide-chelator conjugates” (Resolution Pharmaceuticals, Inc., priority 1997, dated 1999).
